Primed or numbered codes have the meaning given here. Where no end group is shown, it is not given here. [ ]: non-standard residue; d: D form. FITC′ = fluorescein isothiocyanate label at the N-terminus; pS = N[C@@H](COP(=O)(O)O)C(=O)O

In one assay the target is T1, 14-3-3γ-R57G-nLuc (human, UniProt P61981 2-247, R57G).
T1 construct: 14-3-3γ (YWHAG), human, pathogenic patient variant R57G, site-directed mutant of the 14-3-3γ-nLuc plasmid; limits as m8; As m8 with R57G; source: E. coli Rosetta(DE3)pLysS, purified (Ni-NTA); not shown: nLuc (nanoluciferase), C-terminal, kept
T1 sequence (looked up): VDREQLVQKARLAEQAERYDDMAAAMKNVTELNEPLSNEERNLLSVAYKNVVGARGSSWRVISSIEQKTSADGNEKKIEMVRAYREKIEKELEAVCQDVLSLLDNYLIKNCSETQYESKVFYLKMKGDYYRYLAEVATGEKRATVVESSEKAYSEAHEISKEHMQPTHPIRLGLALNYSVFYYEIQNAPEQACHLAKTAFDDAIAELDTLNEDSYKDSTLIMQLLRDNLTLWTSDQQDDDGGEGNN
Put plainly: FRET or BRET; in vitro BRET: 1 nM recombinant nLuc or 14-3-3γ-nLuc with increasing FITC-phosphopeptide in 20 mM Tris-HCl, 150 mM NaCl, 1 mg/mL BSA, 0.1% Tween 20; 250 nM furimazine; net BRET after subtraction of nLuc background; Kd from y = Bmax*x/(Kd + x). Conditions: both partners purified.

Assay [1] addresses T2, wild-type 14-3-3γ-nLuc (His6-14-3-3γ-nLuc) (human, UniProt P61981 2-247).
T2 construct: Size ~47.5 kDa as printed; The Nluc forward primer encodes a short linker (GGGGTRS, read from the primer) between 14-3-3γ and nLuc; also called wt 14-3-3γ-nLuc; 14-3-3γ-nLuc wt; source: E. coli Rosetta(DE3)pLysS, purified (Ni-NTA); not shown: nLuc (nanoluciferase), C-terminal, kept
T2 sequence (looked up): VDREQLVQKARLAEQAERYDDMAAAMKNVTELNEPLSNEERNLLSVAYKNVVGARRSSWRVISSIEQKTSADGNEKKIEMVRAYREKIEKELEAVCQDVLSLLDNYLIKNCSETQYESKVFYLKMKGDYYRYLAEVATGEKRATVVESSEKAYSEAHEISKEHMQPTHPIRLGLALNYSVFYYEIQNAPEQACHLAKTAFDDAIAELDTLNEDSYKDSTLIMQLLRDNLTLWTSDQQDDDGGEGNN
The description is as above. The conditions noted are these: both partners purified.

The target of assay [2] is T3, 14-3-3γ-R57C-nLuc (human, UniProt P61981 2-247, R57C).
T3 construct: 14-3-3γ (YWHAG), human, pathogenic patient variant R57C, site-directed mutant of the 14-3-3γ-nLuc plasmid; limits as m8; As m8 with R57C; source: E. coli Rosetta(DE3)pLysS, purified (Ni-NTA); not shown: nLuc (nanoluciferase), C-terminal, kept
T3 sequence (looked up): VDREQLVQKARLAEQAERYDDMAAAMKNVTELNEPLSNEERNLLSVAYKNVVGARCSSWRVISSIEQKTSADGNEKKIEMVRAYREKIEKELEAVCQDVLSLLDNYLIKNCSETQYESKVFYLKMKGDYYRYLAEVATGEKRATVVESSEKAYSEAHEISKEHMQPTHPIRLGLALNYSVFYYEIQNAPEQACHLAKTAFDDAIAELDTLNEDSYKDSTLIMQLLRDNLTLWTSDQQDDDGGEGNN
The assay is described as above. The conditions noted are these: both partners purified.

The target of assay [3] is T4, wild-type 14-3-3γ-nLuc (His6-14-3-3γ-nLuc) (human, UniProt P61981 2-247).
T4 chain: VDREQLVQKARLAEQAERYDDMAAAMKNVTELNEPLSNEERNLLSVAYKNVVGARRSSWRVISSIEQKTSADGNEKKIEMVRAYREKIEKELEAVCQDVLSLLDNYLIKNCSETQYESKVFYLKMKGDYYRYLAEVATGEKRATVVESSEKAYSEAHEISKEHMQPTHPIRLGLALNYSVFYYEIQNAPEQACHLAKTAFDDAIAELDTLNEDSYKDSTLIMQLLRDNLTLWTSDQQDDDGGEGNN
Kind of assay: nafamostat 25 uM.

Assay [4] has as its target T5, 14-3-3γ-R57C-nLuc (human, UniProt P61981 2-247, R57C).
T5 sequence: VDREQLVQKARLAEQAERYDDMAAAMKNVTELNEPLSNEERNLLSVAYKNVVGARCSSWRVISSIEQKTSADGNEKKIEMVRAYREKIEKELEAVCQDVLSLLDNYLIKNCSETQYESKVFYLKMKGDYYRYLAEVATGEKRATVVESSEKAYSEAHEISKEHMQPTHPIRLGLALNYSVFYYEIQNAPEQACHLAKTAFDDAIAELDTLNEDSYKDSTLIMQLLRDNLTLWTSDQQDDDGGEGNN
Kind of assay: degarelix 1 uM; apparent, Bmax set to wild-type.

Assay [5] has as its target T5, 14-3-3γ-R57C-nLuc. Kind of assay: nafamostat 25 uM; apparent, Bmax set to wild-type.
The target in assay [6] is T4, wild-type 14-3-3γ-nLuc …. Put plainly: degarelix 1 uM.
Assay [7] has as its target T2, wild-type 14-3-3γ-nLuc …. Kind of assay: FRET or BRET; in vitro BRET competition: wt 14-3-3γ-nLuc and FITC-phosphopeptide with increasing doses of R18 peptide (Figure S2D). Conditions: both partners purified.
Assay [8] addresses T5, 14-3-3γ-R57C-nLuc. Kind of assay: DMSO; apparent, Bmax set to wild-type.

B1: FITC-pSLP76 (peptide)
peptide: {FITC′}-FPQSA[pS]LPPYFS
notes: SLP76 (Lymphocyte cytosolic protein 2/LCP2), human; source: synthetic peptide (AbClonal)
Take B1: the “percent of the phosphopeptide binding reached at the highest peptide concentration” value in the assay with 14-3-3γ-R57G-nLuc and with 14-3-3γ-R57C-nLuc [2] was ~30% in each case. In addition, the Kd in assay [1] was found to be 47.5 nM.

B2: FITC-pTH (peptide)
peptide: {FITC′}-MPTPDATTPQAKGFRRAV[pS]ELDAKQAEAIMSPRFIGRRQSLIE
notes: also called phosphopeptide derived from tyrosine hydroxylase (TH); source: synthetic peptide (AbClonal)
Consider B2, for which the Kd in assay [3] stood at 75 nM; in the assay with 14-3-3γ-R57C-nLuc [4] it was 22200 nM; with 14-3-3γ-R57C-nLuc [5] it was 5280 nM; in [6] it was 36.2 nM; in [1] it was 84.3 nM.

B3: R18 peptide (peptide)
peptide: PHCVPRDLSWLDLEANMCLP
notes: Not labelled with FITC (only the phosphopeptides were); source: synthetic peptide (AbClonal)
As for B3, the binding result in assay [7] is listed as “binds”.

B4: FITC-ppLRRK2 (peptide)
peptide: {FITC′}-QRHSN[pS]LGPIFDGSGGGSGIKARAS[pS]SPVILVGTHLD
notes: leucine-rich repeat kinase 2 (LRRK2), human; also called FITC-LRRK2; source: synthetic peptide (AbClonal)
On to B4, for which the Kd in assay [3] came to 0.8 nM; with 14-3-3γ-R57C-nLuc [4] it was 25.2 nM; in the assay with 14-3-3γ-R57C-nLuc [8], 431 nM; with 14-3-3γ-R57C-nLuc [5], 44.1 nM; in assay [6] it was 0.89 nM; in [1], 0.74 nM. The “percent of the phosphopeptide binding reached at the highest peptide concentration” value with 14-3-3γ-R57G-nLuc and with 14-3-3γ-R57C-nLuc [2] was ~30% throughout.

For the origin of these results see article PMC12025923 (Cells, 2025).
